According to patent US20100272723A1 (Xencor, published 2010):
Substitutions are numbered along the chain they refer to. In names and notes the source's numbering stands.

T1: human CD19 (human, UniProt P15391 20-556)
T1 construct: also called B-cell surface antigen B4; B-cell antigen CD19
T1 sequence: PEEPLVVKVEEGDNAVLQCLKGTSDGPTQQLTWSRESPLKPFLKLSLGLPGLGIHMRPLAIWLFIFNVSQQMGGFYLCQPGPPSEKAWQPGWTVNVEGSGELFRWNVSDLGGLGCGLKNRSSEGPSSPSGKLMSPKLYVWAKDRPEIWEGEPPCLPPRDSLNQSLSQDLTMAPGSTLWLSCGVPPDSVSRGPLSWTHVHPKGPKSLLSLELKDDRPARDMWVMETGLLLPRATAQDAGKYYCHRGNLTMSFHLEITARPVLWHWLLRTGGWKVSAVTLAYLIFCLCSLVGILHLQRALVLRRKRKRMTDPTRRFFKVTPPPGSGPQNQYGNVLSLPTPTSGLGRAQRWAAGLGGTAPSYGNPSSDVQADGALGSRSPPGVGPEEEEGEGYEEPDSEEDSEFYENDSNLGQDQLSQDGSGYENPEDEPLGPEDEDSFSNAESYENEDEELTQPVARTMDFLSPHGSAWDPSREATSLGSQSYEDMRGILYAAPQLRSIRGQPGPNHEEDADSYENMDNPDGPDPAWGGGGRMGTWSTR

B1: H1.191 / L1.149 (antibody, V domains shown)
VH: EVQLVESGGGLVKPGGSLKLSCAASGYTFTSYVMHWVRQAPGKGLEWIGYINPYNDGTEYNEKFQGRVTISSDKSISTAYMELSSLRSEDTAMYYCARGTYYYGTRVFDYWGQGTLVTVSS
VL: DIVMTQSPATLSLSPGERATLSCRSSKSLQNSNGNTYLYWFQQKPGQSPQLLIYRMSNLNSGVPDRFSGSGSGTEFTLTISSLEPEDFAVYYCMQHLEYPITFGAGTKLEIK
notes: vs H1L1 (Kabat): VH K58E/S100cT; VL L27cQ/A55N/F96I; also called 4G7 H1.191_L1.149
B2: H1.202 / L1.160 (antibody, V domains shown)
VH: B1 VH with D56E, E59K
VL: B1 VL with S32V, G34A
notes: vs H1L1 (Kabat): VH D55E/S100cT; VL L27cQ/S27eV/G29A/A55N/F96I; also called 4G7 H1.202_L1.160
B3: H1.191 / L1.161 (antibody, V domains shown)
VH: B1 VH
VL: B1 VL with S32V, G34S
notes: vs H1L1 (Kabat): VH K58E/S100cT; VL L27cQ/S27eV/G29S/A55N/F96I; also called 4G7 H1.191_L1.161
B4: H1.199 / L1.141 (antibody, V domains shown)
VH: B1 VH with T58P
VL: B1 VL with Q30L, I101N
notes: vs H1L1 (Kabat): VH T57P/K58E/S100cT; VL A55N/F96N; also called 4G7 H1.199_L1.141
B5: H1.201 / L1.160 (antibody, V domains shown)
VH: B1 VH with D56S, E59K
VL: B1 VL with S32V, G34A
notes: vs H1L1 (Kabat): VH D55S/S100cT; VL L27cQ/S27eV/G29A/A55N/F96I; also called 4G7 H1.201_L1.160
B6: H1 / L1.124 (antibody, V domains shown)
VH: B1 VH with E59K, T105S
VL: B1 VL with Q30L, L59W, N60A, I101F
notes: vs H1L1 (Kabat): VL L54W; also called 4G7 H1_L1.124
B7: H1.146 / L1 (antibody, V domains shown)
VH: B1 VH with E59K, T105S, D109H
VL: B1 VL with Q30L, N60A, I101F
notes: vs H1L1 (Kabat): VH D101H; also called 4G7 H1.146_L1
B8: H1.196 / L1 (antibody, V domains shown)
VH: B1 VH with T58P, E59K, R106S
VL: B1 VL with Q30L, N60A, I101F
notes: vs H1L1 (Kabat): VH T57P/S100cT/R100dS; also called 4G7 H1.196_L1
B9: H1.192 / L1.154 (antibody, V domains shown)
VH: B1 VH with T58P, E59K
VL: B1 VL with S32V, I101N
notes: vs H1L1 (Kabat): VH T57P/S100cT; VL L27cQ/S27eV/A55N/F96N; also called 4G7 H1.192_L1.154
B10: H1.199 / L1.146 (antibody, V domains shown)
VH: B1 VH with T58P
VL: B1 VL with Q30L, S32V, I101N
notes: vs H1L1 (Kabat): VH T57P/K58E/S100cT; VL S27eV/A55N/F96N; also called 4G7 H1.199_L1.146
B11: H1.192 / L1.146 (antibody, V domains shown)
VH: B1 VH with T58P, E59K
VL: B1 VL with Q30L, S32V, I101N
notes: vs H1L1 (Kabat): VH T57P/S100cT; VL S27eV/A55N/F96N; also called 4G7 H1.192_L1.146
B12: H1.192 / L1.144 (antibody, V domains shown)
VH: B1 VH with T58P, E59K
VL: B1 VL with N60A, I101N
notes: vs H1L1 (Kabat): VH T57P/S100cT; VL L27cQ/F96N; also called 4G7 H1.192_L1.144
B13: H1.62 / L1 (antibody, V domains shown)
VH: B1 VH with E59K, T105S, R106E
VL: B1 VL with Q30L, N60A, I101F
notes: vs H1L1 (Kabat): VH R100dE; also called 4G7 H1.62_L1
B14: H1.52 / L1.155 (antibody, V domains shown)
VH: B1 VH with E59K
VL: B1 VL with S32V
notes: vs H1L1 (Kabat): VH S100cT; VL L27cQ/S27eV/A55N/F96I; also called 4G7 H1.52_L1.155
B15: H1.191 / L1.160 (antibody, V domains shown)
VH: B1 VH
VL: B1 VL with S32V, G34A
notes: vs H1L1 (Kabat): VH K58E/S100cT; VL L27cQ/S27eV/G29A/A55N/F96I; also called 4G7 H1.191_L1.160
B16: H1.78 / L1 (antibody, V domains shown)
VH: B1 VH with D56A, E59K, T105S
VL: B1 VL with Q30L, N60A, I101F
notes: vs H1L1 (Kabat): VH D55A; also called 4G7 H1.78_L1
B17: H1.199 / L1.148 (antibody, V domains shown)
VH: B1 VH with T58P
VL: B1 VL with I101N
notes: vs H1L1 (Kabat): VH T57P/K58E/S100cT; VL L27cQ/A55N/F96N; also called 4G7 H1.199_L1.148
B18: H1.201 / L1.155 (antibody, V domains shown)
VH: B1 VH with D56S, E59K
VL: B1 VL with S32V
notes: vs H1L1 (Kabat): VH D55S/S100cT; VL L27cQ/S27eV/A55N/F96I; also called 4G7 H1.201_L1.155
B19: H1.192 / L1.152 (antibody, V domains shown)
VH: B1 VH with T58P, E59K
VL: B1 VL with S32V, N60A, I101N
notes: vs H1L1 (Kabat): VH T57P/S100cT; VL L27cQ/S27eV/F96N; also called 4G7 H1.192_L1.152
B20: H1.113 / L1 (antibody, V domains shown)
VH: B1 VH with T58H, E59K, T105S
VL: B1 VL with Q30L, N60A, I101F
notes: vs H1L1 (Kabat): VH T57H; also called 4G7 H1.113_L1
B21: H1.52 / L1.145 (antibody, V domains shown)
VH: B1 VH with E59K
VL: B1 VL with N60A
notes: vs H1L1 (Kabat): VH S100cT; VL L27cQ/F96I; also called 4G7 H1.52_L1.145
B22: H1.196 / L1.154 (antibody, V domains shown)
VH: B1 VH with T58P, E59K, R106S
VL: B1 VL with S32V, I101N
notes: vs H1L1 (Kabat): VH T57P/S100cT/R100dS; VL L27cQ/S27eV/A55N/F96N; also called 4G7 H1.196_L1.154

molecular target: T1, human CD19; experiment: binding affinity relative to the parent H1L1 mAb (Example 5); assay and format not named on the sheet

| Fold change binding | Binder |
| --- | --- |
| 6.02 fold | B1 |
| 3.96 fold | B2 |
| 3.97 fold | B3 |
| 4.02 fold | B4 |
| 4.51 fold | B5 |
| 1.47 fold | B6 |
| 2.45 fold | B7 |
| 3.42 fold | B8 |
| 5.12 fold | B9 |
| 4.11 fold | B10 |
| 3.19 fold | B11 |
| 3.63 fold | B12 |
| 1.65 fold | B13 |
| 6.16 fold | B14 |
| 2.91 fold | B15 |
| 1.14 fold | B16 |
| 4.34 fold | B17 |
| 4.48 fold | B18 |
| 2.98 fold | B19 |
| 1.29 fold | B20 |
| 6.41 fold | B21 |
| 4.44 fold | B22 |
